This note sets out measurements from the supplement of paper PMC11316812.

One data set relates to MCF7. Nature of the data set: percentage of EdU-negative (G0-arrested) nuclei per well, 72 h; higher = more G0 arrest. As to conditions: reference: sequence is the full UniProt precursor, the tested protein was the secreted form or ectodomain.
A further data set deals with hTERT-HMEC. The description is as above. As to conditions: reference: sequence is the full UniProt precursor, the tested protein was the secreted form or ectodomain.
[1] abbreviates: protein concentration 0.00857143 µM.
The mark [2] stands for this setting: protein concentration 0.0857143 µM.
Where [3] appears, read: protein concentration 0.01547 µM.
The mark [4] stands for this setting: protein concentration 0.1547 µM.
Where [5] appears, read: protein concentration 0.021325 µM.
[6] abbreviates: protein concentration 0.03125 µM.
[7] abbreviates: protein concentration 0.21325 µM.
[8] abbreviates: protein concentration 0.3125 µM.
[9] abbreviates: protein concentration 0.0225 µM.
Setting [10] is: protein concentration 0.0272075 µM.
[11] abbreviates: protein concentration 0.272075 µM.
The mark [12] stands for this setting: protein concentration 0.0351429 µM.
The mark [13] stands for this setting: protein concentration 0.351429 µM.

± gives the standard deviation of the averaged measurements.
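Further: secreted proteins added to cultured cells, EdU pulse at the end, nuclei found by Hoechst imaging, EdU status from nuclear versus surrounding ring intensity ratio, PBS as neutral control.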

With “MSVPLLKIGVVLSTMAMITNWMSQTLPSLVGLNTTKLSAAGGGTLDRSTGVLPTNPEESWQVYSSAQDSEGRCICTVVAPQQTMCSRDARTKQLRQLLEKVQNMSQSIEVLDRRTQRDLQYVEKMENQMKGLESKFKQVEESHKQHLARQFKAIKAKMDELRPLIPVLEEYKADAKLVLQFKEEVQNLTSVLNELQEEIGAYDYDELQSRVSNLEERLRACMQKLACGKLTGISDPVTVKTSGSRFGSWMTDPLAPEGDNRVWYMDGYHNNRFVREYKSMVDFMNTDNFTSHRLPHPWSGTGQVVYNGSIYFNKFQSHIIIRFDLKTETILKTRSLDYAGYNNMYHYAWGGHSDIDLMVDESGLWAVYATNQNAGNIVVSRLDPVSLQTLQTWNTSYPKRSAGEAFIICGTLYVTNGYSGGTKVHYAYQTNASTYEYIDIPFQNKYSHISMLDYNPKDRALYAWNNGHQILYNVTLFHVIRSDEL”, the “percentage of EdU-negative” value with MCF7 (setting [1]) came to 25.5 ± 3.5%; with MCF7 (setting [2]), 29.3 ± 2.1%; with hTERT-HMEC (setting [1]), 4.93 ± 0.14%; in the data set on hTERT-HMEC (setting [2]), 9.49 ± 1.4%.
Take “MSWSLHPRNLILYFYALLFLSSTCVAYVATRDNCCILDERFGSYCPTTCGIADFLSTYQTKVDKDLQSLEDILHQVENKTSEVKQLIKAIQLTYNPDESSKPNMIDAATLKSRKMLEEIMKYEASILTHDSSIRYLQEIYNSNNQKIVNLKEKVAQLEAQCQEPCKDTVQIHDITGKDCQDIANKGAKQSGLYFIKPLKANQQFLVYCEIDGSGNGWTVFQKRLDGSVDFKKNWIQYKEGFGHLSPTGTTEFWLGNEKIHLISTQSAIPYALRVELEDWNGRTSTADYAMFKVGPEADKYRLTYAYFAGGDAGDAFDGFDFGDDPSDKFFTSHNGMQFSTWDNDNDKFEGNCAEQDGSGWWMNKCHAGHLNGVYYQGGTYSKASTPNGYDNGIIWATWKTRWYSMKKTTMKIIPFNRLTIGEGQQHHLGGAKQVRPEHPAETEYDSLYPEDDL”: the “percentage of EdU-negative” value in the data set on MCF7 (setting [3]) is 24 ± 1.3%; in the data set on MCF7 (setting [4]), 25 ± 2%; in the data set with hTERT-HMEC (setting [3]) it was 5.07 ± 0.17%; with hTERT-HMEC (setting [4]) it was 5.92 ± 0.15%.
As to “MTALFLMSMLFGLTCGQAMSFCIPTEYTMHIERRECAYCLTINTTICAGYCMTRDINGKLFLPKYALSQDVCTYRDFIYRTVEIPGCPLHVAPYFSYPVALSCKCGKCNTDYSDCIHEAIKTNYCTKPQKSYLVGFSV”, the “percentage of EdU-negative” value with MCF7 (protein concentration 0.017 µM) is 27.8 ± 3.8%; in the data set with MCF7 (protein concentration 0.17 µM), 27.2 ± 1.9%; in the data set with hTERT-HMEC (protein concentration 0.017 µM) it was 5.28 ± 0.69%; in the data set with hTERT-HMEC (protein concentration 0.17 µM), 9.97 ± 1.1%.
Turning to “MTAPGAAGRCPPTTWLGSLLLLVCLLASRSITEEVSEYCSHMIGSGHLQSLQRLIDSQMETSCQITFEFVDQEQLKDPVCYLKKAFLLVQDIMEDTMRFRDNTPNAIAIVQLQELSLRLKSCFTKDYEEHDKACVRTFYETPLQLLEKVKNVFNETKNLLDKDWNIFSKNCNNSFAECSSQDVVTKPDCNCLYPKAIPSSDPASVSPHQPLAPSMAPVAGLTWEDSEGTEGSSLLPGEQPLHTVDPGSAKQRPPRSTCQSFEPPETPVVKDSTIGGSPQPRPSVGAFNPGMEDILDSAMGTNWVPEEASGEASEIPVPQGTELSPSRPGGGSMQTEPARPSNFLSASSPLPASAKGQQPADVTGTALPRVGPVRPTGQDWNHTPQKTDHPSALLRDPPEPGSPRISSLRPQGLSNPSTLSAQPQLSRSHSSGSVLPLGELEGRRSTRDRRSPAEPEGGPASEGAARPLPRFNSVPLTDTGHERQSEGSFSPQLQESVFHLLVPSVILVLLAVGGLLFYRWRRRSHQEPQRADSPLEQPEGSPLTQDDRQVELPV”, the “percentage of EdU-negative” value with MCF7 (setting [5]) was 21.9 ± 1.2%; in the data set on MCF7 (setting [6]), 26.7 ± 0.3%; in the data set with MCF7 (setting [7]), 27.6 ± 1.4%; with MCF7 (setting [8]), 26 ± 0.57%; in the data set on hTERT-HMEC (setting [5]) it was 5.8 ± 0.14%; in the data set on hTERT-HMEC (setting [6]), 4.68 ± 0.61%. Further, the “percentage of EdU-negative” value worked out at 6.92 ± 1.3% in the data set with hTERT-HMEC (setting [7]) and 6.12 ± 1.1% in the data set on hTERT-HMEC (setting [8]).
On to “MTARAWASWRSSALLLLLVPGYFPLSHPMTVAGPVGGSLSVQCRYEKEHRTLNKFWCRPPQILRCDKIVETKGSAGKRNGRVSIRDSPANLSFTVTLENLTEEDAGTYWCGVDTPWLRDFHDPIVEVEVSVFPAGTTTASSPQSSMGTSGPPTKLPVHTWPSVTRKDSPEPSPHPGSLFSNVRFLLLVLLELPLLLSMLGAVLWVNRPQRSSRSRQNWPKGENQ”, for which the “percentage of EdU-negative” value came to 26.2 ± 3.7% with MCF7 (setting [9]), 23.5 ± 0.75% with MCF7 (protein concentration 0.225 µM), 5.08 ± 0.64% with hTERT-HMEC (setting [9]) and 12.4 ± 10% with hTERT-HMEC (protein concentration 0.225 µM).
As for “MTATEALLRVLLLLLAFGHSTYGAECFPACNPQNGFCEDDNVCRCQPGWQGPLCDQCVTSPGCLHGLCGEPGQCICTDGWDGELCDRDVRACSSAPCANNRTCVSLDDGLYECSCAPGYSGKDCQKKDGPCVINGSPCQHGGTCVDDEGRASHASCLCPPGFSGNFCEIVANSCTPNPCENDGVCTDIGGDFRCRCPAGFIDKTCSRPVTNCASSPCQNGGTCLQHTQVSYECLCKPEFTGLTCVKKRALSPQQVTRLPSGYGLAYRLTPGVHELPVQQPEHRILKVSMKELNKKTPLLTEGQAICFTILGVLTSLVVLGTVGIVFLNKCETWVSNLRYNHMLRKKKNLLLQYNSGEDLAVNIIFPEKIDMTTFSKEAGDEEI”, the “percentage of EdU-negative” value with MCF7 (setting [10]) worked out at 27.1 ± 2.7%; in the data set on MCF7 (setting [11]) it was 26.7 ± 1.4%; with hTERT-HMEC (setting [10]) it was 4.9 ± 0.42%; in the data set with hTERT-HMEC (setting [11]) it was 6.02 ± 1.2%.
“MTCKMSQLERNIETIINTFHQYSVKLGHPDTLNQGEFKELVRKDLQNFLKKENKNEKVIEHIMEDLDTNADKQLSFEEFIMLMARLTWASHEKMHEGDEGPGHHHKPGLGEGTP”: the “percentage of EdU-negative” value amounted to 26 ± 1.1% with MCF7 (setting [6]), 24.6 ± 0.91% with MCF7 (setting [8]), 5.56 ± 0.9% in the data set with hTERT-HMEC (setting [6]) and 5.25 ± 0.34% in the data set on hTERT-HMEC (setting [8]).
On the same counts, the results for “MTDRQTDTAPSPSYHLLPGRRRTVDAAASRGQGPEPAPGGGVEGVGARGVALKLFVQLLGCSRFGGAVVRAGEAEPSGAARSASSGREEPQPEEGEEEEEKEEERGPQWRLGARKPGSWTGEAAVCADSAPAARAPQALARASGRGGRVARRGAEESGPPHSPSRRGSASRAGPGRASETMNFLLSWVHWSLALLLYLHHAKWSQAAPMAEGGGQNHHEVVKFMDVYQRSYCHPIETLVDIFQEYPDEIEYIFKPSCVPLMRCGGCCNDEGLECVPTEESNITMQIMRIKPHQGQHIGEMSFLQHNKCECRPKKDRARQEKKSVRGKGKGQKRKRKKSRYKSWSVPCGPCSERRKHLFVQDPQTCKCSCKNTDSRCKARQLELNERTCRCDKPRR” are 27 ± 1.3%, 25.1 ± 0.32%, 5.12 ± 1.2% and 5.48 ± 0.89%.
As to “MTGDCMPVLVLMAAVLTVTGAVPVARLRGALPDARGCHIAQFKSLSPQELQAFKRAKDALEESLLLKDCKCRSRLFPRTWDLRQLQVRERPVALEAELALTLKVLEATADTDPALGDVLDQPLHTLHHILSQLRACIQPQPTAGPRTRGRLHHWLHRLQEAPKKESPGCLEASVTFNLFRLLTRDLNCVASGDLCV [Q8IZI9]”, the “percentage of EdU-negative” value was found to be 24 ± 2.3% with MCF7 (setting [12]), 28.6 ± 4% in the data set with MCF7 (setting [13]), 6.75 ± 0.89% with hTERT-HMEC (setting [12]) and 10.9 ± 2.5% with hTERT-HMEC (setting [13]).
